According to US20110165145A1 (published 2011):

T1: IGF binding protein 2 (BP2) (UniProt P18065 36-325)
T1 construct: also called IGF BP2
T1 sequence (looked up): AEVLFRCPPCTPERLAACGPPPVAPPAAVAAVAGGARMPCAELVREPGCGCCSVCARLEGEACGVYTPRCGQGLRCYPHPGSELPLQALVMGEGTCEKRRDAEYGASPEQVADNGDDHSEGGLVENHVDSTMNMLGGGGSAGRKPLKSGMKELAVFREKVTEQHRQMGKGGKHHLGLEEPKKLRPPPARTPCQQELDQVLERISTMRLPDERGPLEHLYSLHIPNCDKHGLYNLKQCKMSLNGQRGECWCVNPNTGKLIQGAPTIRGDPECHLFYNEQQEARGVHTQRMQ

T2: IGF binding protein 4 (BP4) (UniProt P22692 22-258)
T2 construct: also called IGF BP4
T2 sequence (looked up): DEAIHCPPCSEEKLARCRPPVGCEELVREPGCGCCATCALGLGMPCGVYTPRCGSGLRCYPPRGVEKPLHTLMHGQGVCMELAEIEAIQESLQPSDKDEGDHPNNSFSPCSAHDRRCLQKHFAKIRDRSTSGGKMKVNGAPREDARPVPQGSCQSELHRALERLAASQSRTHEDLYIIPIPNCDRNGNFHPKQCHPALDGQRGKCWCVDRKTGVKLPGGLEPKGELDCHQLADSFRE


Key:
[1] = target: T3, IGF-IIE (amino acids 1-104 of pro-IGF-II) (human, UniProt P01344 25-128); experiment: SPR, IgG on Protein G', then ligand, then BP; competitor BP2; 0 = no significant competition, 5 = competes strongly
T3 construct: Biotinylated in the selections; also called IGF-IIE (104aa)
T3 sequence (P01344 25-128): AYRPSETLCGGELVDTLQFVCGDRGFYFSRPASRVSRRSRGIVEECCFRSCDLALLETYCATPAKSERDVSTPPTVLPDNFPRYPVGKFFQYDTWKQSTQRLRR
Protocol: (§1) BIACORE® T100 and a CM5 chip coated with Protein G were utilised to set up following assay. Approximately 1000 RU of Protein G′ was immobilized on a CM5 chip using standard amine chemistry immobilization method.
(§2) 4) Protein G′ surface was finally regenerated by injection of 10 mM Glycine pH 1.5-injected at 30 ul/min for 60 sec.

[2] = target: T4, insulin-like growth factor II (IGF-II), amino acids 1-67 (human, UniProt P01344 25-91); experiment: as above
T4 construct: recombinant; also called IGF-II (67aa); IGF2
T4 sequence (P01344 25-91): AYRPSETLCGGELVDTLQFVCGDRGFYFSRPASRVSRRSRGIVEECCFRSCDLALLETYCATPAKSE
Protocol: as §1, §2

[3] = target: T3, IGF-IIE (amino acids 1-104 of …); experiment: SPR, IgG on Protein G', then ligand, then BP; competitor BP4; 0 = no significant competition, 5 = competes strongly
Protocol: as §1, §2

[4] = target: T4, insulin-like growth factor II (IGF-II), …; experiment: as above
Protocol: as §1, §2

[5] = target: T3, IGF-IIE (amino acids 1-104 of …); experiment: SPR (BIACORE), IgG
[6] = target: T4, insulin-like growth factor II (IGF-II), …; experiment: SPR (BIACORE), IgG
[7] = target: T3, IGF-IIE (amino acids 1-104 of …); experiment: competition SPR (BIACORE T100), affinity in solution, free ligand read on huIR-A ECD; measurement 2
Protocol: (§3) Competition SPR (BIACORE®) was performed under conditions of partially mass-transport limited conditions according to previously described methodology (Nieba et al., 1996). Approximately 16,700 relative response units (RU) of huIR-A (-exon11) ectodomain was coupled by standard amine chemistry to a BIACORE® CM5 chip sensor. Uncoated flow-cell surface was used as a reference. […] Regeneration of the surface was achieved by injection of 30 ul NaCltrate/NaCl pH 4.5. […] These Req estimates were subsequently plotted against total concentrations of Fab used and the resulting inhibition curve was utilised to calculate dissociation constant (KD).

[8] = target: T4, insulin-like growth factor II (IGF-II), …; experiment: as above
Protocol: as §3

[9] = target: T3, IGF-IIE (amino acids 1-104 of …); experiment: SPR (Flexchip), Fab, 2nd of duplicate
[10] = target: T4, insulin-like growth factor II (IGF-II), …; experiment: SPR (Flexchip), Fab, 2nd of duplicate
[11] = target: T3, IGF-IIE (amino acids 1-104 of …); experiment: SPR (Flexchip), Fab, 1st of duplicate
[12] = target: T4, insulin-like growth factor II (IGF-II), …; experiment: SPR (Flexchip), Fab, 1st of duplicate
[13] = target: insulin-like growth factor I (IGF-I) (UniProt P05019 49-118); experiment: cell-based or functional assay
Sequence of insulin-like growth factor I (IGF-I) (P05019 49-118 limits assumed): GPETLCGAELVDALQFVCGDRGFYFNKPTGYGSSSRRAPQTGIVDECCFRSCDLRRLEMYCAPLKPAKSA

[14] = target: T3, IGF-IIE (amino acids 1-104 of …); experiment: competition SPR (BIACORE T100), affinity in solution, free ligand read on huIR-A ECD; measurement 1
Protocol: as §3

[15] = target: T4, insulin-like growth factor II (IGF-II), …; experiment: as above
Protocol: as §3

[16] = target: T3, IGF-IIE (amino acids 1-104 of …); experiment: cell-based or functional assay
[17] = target: T4, insulin-like growth factor II (IGF-II), …; experiment: cell-based or functional assay
[18] = target: T1, IGF binding protein 2 (BP2); experiment: SPR (BIACORE T100): BP2 injected over M0064-E04 IgG captured on Protein G', with buffer in place of IGF-II
[19] = target: T3, IGF-IIE (amino acids 1-104 of …); experiment: cell-based or functional assay; remark: listed apart in the source
[20] = target: T4, insulin-like growth factor II (IGF-II), …; experiment: cell-based or functional assay; remark: listed apart in the source
[21] = target: T2, IGF binding protein 4 (BP4); experiment: SPR (BIACORE T100): BP4 injected over M0064-E04 IgG captured on Protein G', with buffer in place of IGF-II

Binder	competition score [1]	competition score [2]	competition score [3]	competition score [4]	Kd [5]	Kd [6]	Kd [7]	Kd [8]	Kd [9]	Kd [10]	Kd [11]	Kd [12]	IGF-I stimulated Ba/F3 cell proliferation, sFab at 50 µg/ml [13]	Kd [14]	Kd [15]	IC50, IGF-IIE stimulated Ba/F3 cell proliferation (MTS) [16]	IC50, IGF-II stimulated Ba/F3 cell proliferation (MTS) [17]	IC50, IGF-IIE stimulated Ba/F3 cell proliferation (Guava ViaCount) [19]	IC50, IGF-II stimulated Ba/F3 cell proliferation (Guava ViaCount) [20]	also measured
X0008-A01 (germlined M0064-F02 IgG) (antibody, V domains shown) VH: EVQLLESGGGLVQPGGSLRLSCAASGFTFSNYIMWWVRQAPGKGLEWVSVISSSGGMTRYADSVKGRFTISRDNSKNTLYLQMNSLRAEDTAVYYCARDNGDYVGEKGFDIWGQGTMVTVSS VL: DIQMTQSPSSLSASVGDRVTITCRASQSISNYLNWYQQKPGKAPKLLIYTASTLQSGVPSRFSGSGSGTDFTLTISSLQPEDFATYYCQQSYNSPWTFGQGTKVEIK	–	–	–	–	< 0.023 nM	0.023 nM	–	–	–	–	–	–	–	–	–	–	–	–	–	–
M0063-F02 Fab (Fab, V domains shown, soluble Fab (sFab); also called R0032-A01) VH: EVQLLESGGGLVQPGGSLRLSCAASGFTFSKYEMDWVRQAPGKGLEWVSVISSSGGGTIYADSVKGRFTISRDNSKNTLYLQMNSLRAEDTAMYYCARGRTLYGGAFDIWGQGTMVTVSS VL: DIQMTQSPSSLSASVGDRVTITCRASQPINTYLNWYQQRPGKAPRILIYTSSTLQSGVPSRFSGSGSGTDFTLTISSVQPEDFATYYCQQSYSFPLTFGGGTKVEIKR	–	–	–	–	–	–	1.47 nM	0.858 nM	0.2 nM	1.6 nM	0.12 nM	0.77 nM	~30 % inhibition	2.78 nM	1.17 nM	2.04 µg/mL	5.56 µg/mL	–	–	–
M0063-F02 IgG (parental) (antibody, V domains shown) VH: EVQLLESGGGLVQPGGSLRLSCAASGFTFSKYEMDWVRQAPGKGLEWVSVISSSGGGTIYADSVKGRFTISRDNSKNTLYLQMNSLRAEDTAMYYCARGRTLYGGAFDIWGQGTMVTVSS VL: DIQMTQSPSSLSASVGDRVTITCRASQPINTYLNWYQQRPGKAPRILIYTSSTLQSGVPSRFSGSGSGTDFTLTISSVQPEDFATYYCQQSYSFPLTFGGGTKVEIK	1 score 0-5	1 score 0-5	1 score 0-5	0 score 0-5	–	–	–	–	–	–	–	–	–	–	–	–	–	0.85 nM	2 nM	IC50, IGF-IIE stimulated Ba/F3 cell proliferation (Guava ViaCount), second study [19]: ~10 nM; IC50, IGF-II stimulated Ba/F3 cell proliferation (Guava ViaCount), second study [20]: ~7 nM

The next lines start with results.

competition score [1]	competition score [2]	competition score [3]	competition score [4]	Kd [5]	Kd [6]	Kd [7]	Kd [8]	Kd [9]	Kd [10]	Kd [11]	Kd [12]	IGF-I stimulated Ba/F3 cell proliferation, sFab at 50 µg/ml [13]	Kd [14]	Kd [15]	IC50, IGF-IIE stimulated Ba/F3 cell proliferation (MTS) [16]	IC50, IGF-II stimulated Ba/F3 cell proliferation (MTS) [17]	IC50, IGF-IIE stimulated Ba/F3 cell proliferation (Guava ViaCount) [19]	IC50, IGF-II stimulated Ba/F3 cell proliferation (Guava ViaCount) [20]	Binder	also measured
4 score 0-5	4 score 0-5	4 score 0-5	4 score 0-5	0.032 nM	0.14 nM	–	–	–	–	–	–	–	–	–	–	–	–	–	M0064-F02 IgG (parental, non-germlined) (antibody, V domains shown) VH: EVQLLESGGGLVQPGGSLRLSCAASGFTFSNYIMWWVRQAPGKGLEWVSVISSSGGMTRYADSVKGRFTISRDNSKNTLYLQMNSLRAEDTAVYYCARDNGDYVGEKGFDIWGQGTMVTVSS VL: DIQMTQSPSSLSASVGDRVTITCRASQSISNYLNWYQQKPGKAPKLLIYTASTLQSGVPSRFSGSASGTDFTLTINSLQPEDFATYSCQQSYNSPWTFGQGTKVEIK	–
–	–	–	–	–	–	0.424 nM	1.11 nM	0.12 nM	0.25 nM	0.093 nM	0.12 nM	~30 % inhibition	0.429 nM	0.608 nM	5.46 µg/mL	3.04 µg/mL	–	–	M0064-E04 Fab (Fab, V domains shown, soluble Fab (sFab); also called R0032-A03; 566A-M0064-E04) VH: EVQLLESGGGLVQPGGSLRLSCAASGFTFSVYDMNWVRQAPGKGLEWVSSISSSGGGTLYADSVKGRFTISRDNSKNTLYLQMNSLRAEDTAVYYCARDSDTSSYYWYYDLWGRGTLVTVSS VL: DIQMTQSPSSLSASVGDRVTITCQASHDISNYLNWYQQKPGKAPKLLIYAASRLQSGVPSRFSGGGSGTDFSLTISSLQAEDFATYYCQQSYSFPRTFGQGTNLEIKR	–
4 score 0-5	5 score 0-5	4 score 0-5	5 score 0-5	0.24 nM	0.52 nM	–	–	–	–	–	–	–	–	–	–	–	~130 nM	~19 nM	M0064-E04 IgG (parental, non-germlined) (antibody, V domains shown) VH: EVQLLESGGGLVQPGGSLRLSCAASGFTFSVYDMNWVRQAPGKGLEWVSSISSSGGGTLYADSVKGRFTISRDNSKNTLYLQMNSLRAEDTAVYYCARDSDTSSYYWYYDLWGRGTLVTVSS VL: DIQMTQSPSSLSASVGDRVTITCQASHDISNYLNWYQQKPGKAPKLLIYAASRLQSGVPSRFSGGGSGTDFSLTISSLQAEDFATYYCQQSYSFPRTFGQGTNLEIK	binding result [18]: no binding (tested: 50.0 nM); binding result [21]: no binding (tested: 50.0 nM)
